Experimental data published in publication doi:10.1101/2023.03.08.531793 (bioRxiv, 2023).

Molecular target: T1, HIS-ABI3 fusion protein (Arabidopsis thaliana, UniProt Q01593 1-720)
T1 sequence (looked up): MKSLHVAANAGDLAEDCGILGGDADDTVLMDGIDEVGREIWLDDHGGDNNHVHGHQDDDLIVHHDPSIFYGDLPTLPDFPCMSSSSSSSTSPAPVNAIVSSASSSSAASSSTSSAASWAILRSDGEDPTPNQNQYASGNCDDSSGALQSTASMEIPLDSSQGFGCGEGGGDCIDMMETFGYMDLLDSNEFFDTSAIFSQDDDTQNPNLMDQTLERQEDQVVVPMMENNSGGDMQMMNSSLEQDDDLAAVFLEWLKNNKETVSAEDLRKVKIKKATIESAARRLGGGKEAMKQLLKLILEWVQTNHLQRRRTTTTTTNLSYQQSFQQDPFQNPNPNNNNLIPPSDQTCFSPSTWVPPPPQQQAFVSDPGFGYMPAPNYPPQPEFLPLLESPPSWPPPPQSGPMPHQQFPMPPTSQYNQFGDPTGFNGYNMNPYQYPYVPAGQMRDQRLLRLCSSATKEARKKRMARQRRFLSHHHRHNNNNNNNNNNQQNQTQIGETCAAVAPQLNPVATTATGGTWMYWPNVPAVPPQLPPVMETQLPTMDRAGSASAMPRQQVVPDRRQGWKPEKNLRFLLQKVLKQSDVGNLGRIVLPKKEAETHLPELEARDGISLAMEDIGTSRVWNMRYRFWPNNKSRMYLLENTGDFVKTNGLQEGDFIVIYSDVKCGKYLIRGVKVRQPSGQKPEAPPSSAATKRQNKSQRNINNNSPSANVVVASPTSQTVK
Assay: pull-down

B1: GST-ERF1 fusion protein (natural protein)
chain: not shown
binding result: binds
